According to the nanobody polyreactivity screen of Harvey et al. (2022):

Assay: yeast display, Sf9 membrane polyspecificity reagent, FACS + sequencing; frameworks hold sequencing errors
Method in brief: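 Nanobodies from a synthetic yeast display library (Saccharomyces cerevisiae BJ5465), induced 36–48 hours with galactose, were stained 1 hour at 4 °C with 10% biotinylated, detergent-solubilized Sf9 membrane reagent, enriched on streptavidin microbeads, then FACS-sorted. Anti-HA (expression) and streptavidin (reagent binding) fluorescence set low and high (top ~1%) gates. Polyreactivity labels come from the gate of origin. Genes were colony-PCR amplified, MiSeq 2 × 250 sequenced and filtered by CDR length.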

QVQLVESGGGLVQAGGSLRLSCAASGRTFNAYTMGSYRPAPGKERELVAAITSSGGNTYYADSVKGRFTISRDNAKNTVYLQMNSLKPEDTAVYYCNTVYLYGTHDYWGQGTQVTVSS
polyreactivity (PSR sort gate): low polyreactivity

QVQLVESGGGLVQAGGSLRLSSASSGFIFRGNAMVWSRQAPGKERELVAAISWSGGNTYYADSVKGRFTISRDYAKNTVYLQMNSMIPEDTAVYYCNGVKAYYRWFLPRYQYNFWGQGTQVTVSS
polyreactivity (PSR sort gate): high polyreactivity

QDQLVESWGGLDKAGGSLLLICDASGSTFKFYTMGWYRQAPGKERELVATIDWSGVSTYYADSVKGRFTISRDNAKNTVYLQMNSLKPEDTAVYYCAARSLRLVGPYYYWGQGTQVTVSS
polyreactivity (PSR sort gate): high polyreactivity

QVQLVESGGGLVQAGGSLRLSCAASGRTFRGYAMGWYRQAPGKERELVAAISSGGSTYYADSVKGRFTISRDNAKNTVYLQMNSLKPEDTAVYYCAVAYYPHGREGAHFQYGYDYWGQGTQVTVSS
polyreactivity (PSR sort gate): low polyreactivity

QVQLVESAGGLVQAGGSLRLSCAASGSTFQSYAMGWYRQAPGKDRELVAAISSGGITYYADSVKGRFTISRDNAKNTVYLQMTSLIPEDTAVYYCAKVPTYLIYNRYSRYDYWGQGTQVTVSS
polyreactivity (PSR sort gate): low polyreactivity

QVQLVESGGGLVQAGGSLRLSCAASGLIFGYNAMGWYRQAPGKERELVASINWSTGRTRYADSVKGRFTISRDNAKNTVYLQMNSLKPEDTAVYYCAARLYNPYPYEYWGQGTQVTVSS
polyreactivity (PSR sort gate): high polyreactivity

QVQLVESGGGLVQAGGSLRLSCAASGLIFYRYAMGWYRQAPRKERELVARISYRTTSTYYADSVKGRFTISRDNAKNNVYLQMNSLKPEDTAVYYCAASRFAYRVRYLFEYWGHGTQVTVSS
polyreactivity (PSR sort gate): high polyreactivity

QVQLVDSAGGLVQAGGSLRLSCAAYGRTNYLYSMGWYRQAPGKERELVAAIRTGDGSTYYADSVKGRFTISRDNAKNTVYLQMISLKPEDTAVYYCAARVGKRYNWGQGTQVTVSS
polyreactivity (PSR sort gate): high polyreactivity

QVQLVESGGGLVQAGGSLRLSCAASGFIFGVNAMGWYRQARGKERELVAAISTSGGSTYYADSVKGRFTISRDNAKNTVYLQMNSLKPEDTAVYYCAALLHRWAYGTYGYVYWGQGSQVTVSS
polyreactivity (PSR sort gate): high polyreactivity

QVQLVESGGGLVQAGGSLRLSCAASGSILEYYAMGWYRQAPGKERELVAGISSAGNTYYADSVKGRFTISRDNAKNTVYLQMNSLKPEDTAVYYCAAVPWSGEYDYWGQGTQVTVSS
polyreactivity (PSR sort gate): low polyreactivity

QVQLVESGGGLVQAGGSLRLSCAASGSIFVYNAMGWYRQAPGKERELVAAITNGGSTNYADSVKGRFTISRDNAKNTVYLQMNSLNPEDTAVYYCAARRYTSAVWWRPRHYYWGQGTQVTVSS
polyreactivity (PSR sort gate): high polyreactivity

QVQLVESGGGLVQAGGSLRLSCAASGRIFDRNAMGWYRQAPGKERELVAAIDDSGGDTSYADSVKGRFTISRDTAKNTVYLQMNSLKPEDTAVYYCAAKRQYYQTGSQRSYPYDYWGQGTQVTVSS
polyreactivity (PSR sort gate): low polyreactivity

QVQLVESGGGLVQAGGSLRLSCAASGSTIDYYTMGWYRQEPGKERELVAAISWSGGNTYYADSVKGRFTISRDNAKNTVYLQMNSLKPEDTAVYYCNRVNAYWLRYDYWGQGTQVSVSS
polyreactivity (PSR sort gate): high polyreactivity

QVQLVESGGGLVQAGGSLRLSCAASGYTIESYGMGWYRQAPGKDREMVAAIDWSGGSTYYADSVKGRFTISRDNAKNTVYLQMNSLIPEDTAVYYCNRDSAGPGDVILAYTGNDYWGQGTQVTVSS
polyreactivity (PSR sort gate): low polyreactivity

QVQLVESGGGLVQAGGSLRLSCAASGLIFYRYAMGWYRQAPGKERELVAAISRSGSSTYYADSVKGRFTISRDNAKNTFYLQINSLKPEDTAVYYCNAGYGWIWDDRGYWGQGTQVTVSS
polyreactivity (PSR sort gate): high polyreactivity

QVQLVESGGGLVQAGGSLRLSCAASGRIFLGNAMGWYRQAPGKDRELVAAITNGGGSTYYADSVKGRFTISRDNAKNTVYLQMNSLKPEDTAVYYCARGYKKSVQRFEYWGQGTQVTVSS
polyreactivity (PSR sort gate): high polyreactivity

QVQLVESGGGLVQAGGSLRLSCAASGITLYFYAMGWYRQAPWKERELVAAISRGGRTYYADSVKGRFTISRDNAKNTVYLQMNSLKPEDTAVYYCAARYTSEYSAFDYWGQGTQVTVSS
polyreactivity (PSR sort gate): low polyreactivity

QVQLVESGGGLVQAGGSLRLSCAASGRTIRWYTMGGYRQAPGKEMELVAGISSSGGSTYYADSVKGRFTISRDNAMNTVYLQMNSLKPEDTAVYYCNAQALRLFWRYDYWGQGTQVTVSS
polyreactivity (PSR sort gate): low polyreactivity

QVQLVESGGGLVQAGGSLRLSCAASGITFATNAMGWYRQAPGKERELVAGITSGGSTYYADSVKGRFTISRDNAKNTVYLQMNSLKPEDTAVYYCNTAVKVERDYWGQGTQVTVSS
polyreactivity (PSR sort gate): low polyreactivity

QVQLVESGGGLVQAGGSLRLSCAASGRTFHHNTMGWYRQAPGKERELVAAISSGGSTNYADSVKGRFTISRDNAKNTVYLQMNSLKPEDTAVYYCNADGGFLQRTGYDYWGQGTQVTVSS
polyreactivity (PSR sort gate): low polyreactivity

QVQLVESGGGLVQAGGSLRLSCADSGSIFSKYAMGWYRQAPGKERELVAAISRSGGRTYYADSVKGRFTISRDNAKNTVYLQMNSLKPEDTAVYYCAADRSYYTWFGGDYWGQGTQVTVSS
polyreactivity (PSR sort gate): high polyreactivity

QVQLVESGGGLVQAGGSLRLSCAASGITFIYYTMGWYRQEPGKERELVAAISSRGSSTYYADSVKGRFTISRDNAKNTVYLQMNSLKPEDTAVYYCAAVQYRYGGMDYWGQGTQVTVSS
polyreactivity (PSR sort gate): high polyreactivity
